{"source": "paper PMC9122904", "about": "“Insights into the client protein release mechanism of the ATP-independent chaperone Spy” (Nature Communications, 2022)", "binders": {"B1": {"name": "Im7 H40W L53A I54A (natural protein)", "chain": "MELKNSISDYTEAEFVQLLKEIEKENVAATDDVLDVLLEWFVKITEHPDGTDAAYYPSDNRDDSPEGIVKEIKEWRAANGKPGFKQG", "modifications": "biotin (EZ-link NHS-biotin, 1:1 molar ratio of biotin to protein)", "notes": "Im7 (colicin E7 immunity protein) with H40W L53A I54A; Spy was made with an N-terminal His6-SUMO tag that was cleaved; also called Im7AAW; partially folded client; source: purified by a similar procedure to Spy"}}, "test_in_all_cases": "BLI; Octet RED96; client biotinylated and loaded on streptavidin sensors; Spy or Spy variant in solution at 0.25, 0.5, 1, 1.5 and 2 μM; 40 mM HEPES, 150 mM NaCl, pH 7.5; Kd calculated as koff/kon", "conditions_in_all_cases": "both partners purified", "key": {"Spy_(24-124)": {"target": "T1, Spy_(24-124) (UniProt P77754 47-147)", "T1 construct": "source: E. coli BL21 (DE3), purified (Ni-NTA, cation exchange, SEC); not shown: His6, N-terminal, cleaved; SUMO, N-terminal, cleaved", "T1 sequence (looked up)": "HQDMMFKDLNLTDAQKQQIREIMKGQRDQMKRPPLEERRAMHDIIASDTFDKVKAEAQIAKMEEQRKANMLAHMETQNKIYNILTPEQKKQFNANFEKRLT", "in_short": "(§1)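 Association was recorded with an Octet RED96 as streptavidin sensors carrying client proteins, biotinylated with EZ-link NHS-biotin at a 1:1 molar ratio, sat in 40 mM HEPES, 150 mM NaCl, pH 7.5 with 0.25 to 2 μM of the analyte protein (0.25, 0.5, 1, 1.5 and 2 μM). Dissociation followed after transfer to analyte-free buffer. Both wavelength-shift phases were fitted in SigmaPlot 12.0 to obtain koff and the observed association rate, whose dependence on analyte concentration yielded kon, with Kd defined as koff divided by kon.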"}, "Spy_(21-127)": {"target": "T2, Spy_(21-127) (UniProt P77754 44-150)", "T2 construct": "Spy chaperone, residues 21-127; source: E. coli BL21 (DE3), purified (Ni-NTA, cation exchange, SEC); not shown: His6, N-terminal, cleaved; SUMO, N-terminal, cleaved", "T2 sequence (looked up)": "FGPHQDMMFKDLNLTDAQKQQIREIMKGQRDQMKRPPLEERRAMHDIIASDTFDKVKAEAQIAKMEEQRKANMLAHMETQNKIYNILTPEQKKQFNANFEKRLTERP", "in_short": "as §1"}, "Spy_(21-124) [1]": {"target": "T3, Spy_(21-124) (UniProt P77754 44-147)", "T3 construct": "source: E. coli BL21 (DE3), purified (Ni-NTA, cation exchange, SEC); not shown: His6, N-terminal, cleaved; SUMO, N-terminal, cleaved", "T3 sequence (looked up)": "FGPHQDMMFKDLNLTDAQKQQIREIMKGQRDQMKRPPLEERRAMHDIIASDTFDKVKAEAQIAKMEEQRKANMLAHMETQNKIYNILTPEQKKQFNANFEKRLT", "in_short": "as §1"}, "Spy_(29-127)": {"target": "T4, Spy_(29-127) (UniProt P77754 52-150)", "T4 construct": "Spy chaperone, residues 29-127; source: E. coli BL21 (DE3), purified (Ni-NTA, cation exchange, SEC); not shown: His6, N-terminal, cleaved; SUMO, N-terminal, cleaved", "T4 sequence (looked up)": "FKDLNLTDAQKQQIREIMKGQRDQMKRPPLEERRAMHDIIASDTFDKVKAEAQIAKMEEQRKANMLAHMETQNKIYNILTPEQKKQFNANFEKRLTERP", "in_short": "as §1"}, "[2]": {"target": "T5, Spy wild type (Spy_(1-138)) (UniProt P77754 24-161)", "T5 construct": "Spy, ATP-independent periplasmic chaperone; also called WT; wt; source: E. coli BL21 (DE3), purified (Ni-NTA, cation exchange, SEC); not shown: His6, N-terminal, cleaved; SUMO, N-terminal, cleaved", "T5 sequence (looked up)": "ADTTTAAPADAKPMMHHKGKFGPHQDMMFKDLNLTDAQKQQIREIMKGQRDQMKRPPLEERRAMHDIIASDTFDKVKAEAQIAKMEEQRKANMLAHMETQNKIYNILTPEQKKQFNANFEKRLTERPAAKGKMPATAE", "in_short": "as §1"}, "Spy_(27-127)": {"target": "T6, Spy_(27-127) (UniProt P77754 50-150)", "T6 construct": "Spy chaperone, residues 27-127; source: E. coli BL21 (DE3), purified (Ni-NTA, cation exchange, SEC); not shown: His6, N-terminal, cleaved; SUMO, N-terminal, cleaved", "T6 sequence (looked up)": "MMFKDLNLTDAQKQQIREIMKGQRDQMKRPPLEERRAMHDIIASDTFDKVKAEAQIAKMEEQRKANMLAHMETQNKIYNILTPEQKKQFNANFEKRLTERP", "in_short": "as §1"}, "Spy_(29-138)": {"target": "T7, Spy_(29-138) (UniProt P77754 52-161)", "T7 construct": "source: E. coli BL21 (DE3), purified (Ni-NTA, cation exchange, SEC); not shown: His6, N-terminal, cleaved; SUMO, N-terminal, cleaved", "T7 sequence (looked up)": "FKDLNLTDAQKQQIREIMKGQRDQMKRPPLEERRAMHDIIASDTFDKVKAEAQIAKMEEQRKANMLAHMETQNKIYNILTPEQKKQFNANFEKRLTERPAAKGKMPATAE", "in_short": "as §1"}, "Spy_(27-124)": {"target": "T8, Spy_(27-124) (UniProt P77754 50-147)", "T8 construct": "source: E. coli BL21 (DE3), purified (Ni-NTA, cation exchange, SEC); not shown: His6, N-terminal, cleaved; SUMO, N-terminal, cleaved", "T8 sequence (looked up)": "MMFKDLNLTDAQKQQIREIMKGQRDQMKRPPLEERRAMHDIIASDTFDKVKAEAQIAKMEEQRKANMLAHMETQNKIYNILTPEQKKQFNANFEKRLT", "in_short": "as §1"}, "Spy_(21-124) [3]": {"target": "T3, Spy_(21-124)", "in_short": "as §1", "remark": "listed apart in the source"}}}
{"binder": "B1", "values": [{"measurement": "kon", "setting": "Spy_(24-124)", "value": 258000, "unit": "M⁻¹ s⁻¹"}, {"measurement": "kon", "setting": "Spy_(21-127)", "value": 258000, "unit": "M⁻¹ s⁻¹"}, {"measurement": "kon", "setting": "Spy_(21-124) [1]", "value": 267000, "unit": "M⁻¹ s⁻¹"}, {"measurement": "kon", "setting": "Spy_(29-127)", "value": 309000, "unit": "M⁻¹ s⁻¹"}, {"measurement": "kon", "setting": "[2]", "value": 276000, "unit": "M⁻¹ s⁻¹"}, {"measurement": "kon", "setting": "Spy_(27-127)", "value": 312000, "unit": "M⁻¹ s⁻¹"}, {"measurement": "Kd", "setting": "Spy_(29-138)", "value": 313, "unit": "nM"}, {"measurement": "Kd", "setting": "Spy_(27-124)", "value": 283, "unit": "nM"}, {"measurement": "Kd", "setting": "Spy_(21-124) [3]", "value": 1820, "unit": "nM"}]}
